From article PMC5141469 (Scientific Reports, 2016) come the findings set out here.

This assay addresses T1, YajC (E. coli, UniProt P0ADZ7 1-110).
T1 construct: YajC of E. coli; also called subunit of SecDF-YajC; subunit of the holo-translocon (HTL)
T1 sequence (looked up): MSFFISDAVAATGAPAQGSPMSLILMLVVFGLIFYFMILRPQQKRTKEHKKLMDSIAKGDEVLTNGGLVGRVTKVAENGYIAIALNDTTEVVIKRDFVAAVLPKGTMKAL
Briefly: SEC + AUC; co-purified detergent-solubilised (DDM) HTL; ultracentrifugation 16 h at 35,000 rpm, 10 °C, absorbance at 280 nm and interference. The note with it: both partners purified.

B1: SecF (natural protein, E. coli, UniProt P0AG93 1-323, looked up)
chain: MAQEYTVEQLNHGRKVYDFMRWDYWAFGISGLLLIAAIVIMGVRGFNWGLDFTGGTVIEITLEKPAEIDVMRDALQKAGFEEPMLQNFGSSHDIMVRMPPAEGETGGQVLGSQVLKVINESTNQNAAVKRIEFVGPSVGADLAQTGAMALMAALLSILVYVGFRFEWRLAAGVVIALAHDVIITLGILSLFHIEIDLTIVASLMSVIGYSLNDSIVVSDRIRENFRKIRRGTPYEIFNVSLTQTLHRTLITSGTTLMVILMLYLFGGPVLEGFSLTMLIGVSIGTASSIYVASALALKLGMKREHMLQQKVEKEGADQPSILP
notes: SecF of E. coli; also called subunit of SecDF; subunit of the holo-translocon (HTL)
B1: the stoichiometry N – broadly, the number of molecules, sites or subunits per partner or assembly – is 1.

B2: SecG (natural protein, E. coli, UniProt P0AG99 1-110, looked up)
chain: MYEALLVVFLIVAIGLVGLIMLQQGKGADMGASFGAGASATLFGSSGSGNFMTRMTALLATLFFIISLVLGNINSNKTNKGSEWENLSAPAKTEQTQPAAPAKPTSDIPN
notes: SecG, subunit of the E. coli SecYEG protein-conducting channel; also called subunit of SecYEG; subunit of the holo-translocon (HTL)
For B2, the “stoichiometry N” value is 1.

B3: YidC (natural protein, E. coli, UniProt P25714 1-548, looked up)
chain: MDSQRNLLVIALLFVSFMIWQAWEQDKNPQPQAQQTTQTTTTAAGSAADQGVPASGQGKLISVKTDVLDLTINTRGGDVEQALLPAYPKELNSTQPFQLLETSPQFIYQAQSGLTGRDGPDNPANGPRPLYNVEKDAYVLAEGQNELQVPMTYTDAAGNTFTKTFVLKRGDYAVNVNYNVQNAGEKPLEISSFGQLKQSITLPPHLDTGSSNFALHTFRGAAYSTPDEKYEKYKFDTIADNENLNISSKGGWVAMLQQYFATAWIPHNDGTNNFYTANLGNGIAAIGYKSQPVLVQPGQTGAMNSTLWVGPEIQDKMAAVAPHLDLTVDYGWLWFISQPLFKLLKWIHSFVGNWGFSIIIITFIVRGIMYPLTKAQYTSMAKMRMLQPKIQAMRERLGDDKQRISQEMMALYKAEKVNPLGGCFPLLIQMPIFLALYYMLMGSVELRQAPFALWIHDLSAQDPYYILPILMGVTMFFIQKMSPTTVTDPMQQKIMTFMPVIFTVFFLWFPSGLVLYYIVSNLVTIIQQQLIYRGLEKRGLHSREKKKS
notes: YidC of E. coli; also called membrane 'insertase' YidC; subunit of the holo-translocon (HTL); not shown: His6, C-terminal, kept
As to B3, the “stoichiometry N” value turned out to be 1.

B4: SecY (natural protein, E. coli, UniProt P0AGA2 1-443, looked up)
chain: MAKQPGLDFQSAKGGLGELKRRLLFVIGALIVFRIGSFIPIPGIDAAVLAKLLEQQRGTIIEMFNMFSGGALSRASIFALGIMPYISASIIIQLLTVVHPTLAEIKKEGESGRRKISQYTRYGTLVLAIFQSIGIATGLPNMPGMQGLVINPGFAFYFTAVVSLVTGTMFLMWLGEQITERGIGNGISIIIFAGIVAGLPPAIAHTIEQARQGDLHFLVLLLVAVLVFAVTFFVVFVERGQRRIVVNYAKRQQGRRVYAAQSTHLPLKVNMAGVIPAIFASSIILFPATIASWFGGGTGWNWLTTISLYLQPGQPLYVLLYASAIIFFCFFYTALVFNPRETADNLKKSGAFVPGIRPGEQTAKYIDKVMTRLTLVGALYITFICLIPEFMRDAMKVPFYFGGTSLLIVVVVIMDFMAQVQTLMMSSQYESALKKANLKGYGR
notes: SecY, subunit of the E. coli SecYEG protein-conducting channel; also called subunit of SecYEG; subunit of the holo-translocon (HTL)
In the case of B4, the “stoichiometry N” value was determined as 1.

B5: SecE (natural protein, E. coli, UniProt P0AG96 1-127, looked up)
chain: MSANTEAQGSGRGLEAMKWVVVVALLLVAIVGNYLYRDIMLPLRALAVVILIAAAGGVALLTTKGKATVAFAREARTEVRKVIWPTRQETLHTTLIVAAVTAVMSLILWGLDGILVRLVSFITGLRF
notes: SecE, subunit of the E. coli SecYEG protein-conducting channel; also called subunit of SecYEG; subunit of the holo-translocon (HTL); not shown: His6, N-terminal, kept
In the case of B5, the “stoichiometry N” value worked out at 1.

B6: SecD (natural protein, E. coli, UniProt P0AG90 1-615, looked up)
chain: MLNRYPLWKYVMLIVVIVIGLLYALPNLFGEDPAVQITGARGVAASEQTLIQVQKTLQEEKITAKSVALEEGAILARFDSTDTQLRAREALMGVMGDKYVVALNLAPATPRWLAAIHAEPMKLGLDLRGGVHFLMEVDMDTALGKLQEQNIDSLRSDLREKGIPYTTVRKENNYGLSITFRDAKARDEAIAYLSKRHPDLVISSQGSNQLRAVMSDARLSEAREYAVQQNINILRNRVNQLGVAEPVVQRQGADRIVVELPGIQDTARAKEILGATATLEFRLVNTNVDQAAAASGRVPGDSEVKQTREGQPVVLYKRVILTGDHITDSTSSQDEYNQPQVNISLDSAGGNIMSNFTKDNIGKPMATLFVEYKDSGKKDANGRAVLVKQEEVINIANIQSRLGNSFRITGINNPNEARQLSLLLRAGALIAPIQIVEERTIGPTLGMQNIEQGLEACLAGLLVSILFMIIFYKKFGLIATSALIANLILIVGIMSLLPGATLSMPGIAGIVLTLAVAVDANVLINERIKEELSNGRTVQQAIDEGYRGAFSSIFDANITTLIKVIILYAVGTGAIKGFAITTGIGVATSMFTAIVGTRAIVNLLYGGKRVKKLSI
notes: SecD of E. coli; also called subunit of SecDF; subunit of the holo-translocon (HTL); not shown: His6, C-terminal, kept
Take B6: the “stoichiometry N” value was 1.
